From the supplement of paper PMC10724198
± gives the standard deviation of the averaged measurements.

Columns and labels:
Saccharomyces cerevisiae [1] = test: protein stability index of tFT-peptide fusion (C-terminal peptide) (PSI (0-1 scale)); higher = more stable (slower turnover); settings: genetic background: wild type; temperature: 30 C
Saccharomyces cerevisiae [2] = test: as above
Procedure: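 MPS profiling in S. cerevisiae of the tFT-X12 degron library: putative degron peptides plus stable controls, 12 aa, fused to the C-terminus of a sfGFP-mCherry timer. Cells are FACS-sorted into 8 mCherry/sfGFP bins and deep-sequenced. PSI runs from 0 (unstable) to 1 (stable). Backgrounds are wild type, das1Δ and doa10Δ at 30 °C, and wild type, das1Δ, cdc34-1 and cdc53-1 at 37 °C; 2-3 technical replicates each.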

[3] = genetic background: cdc34-1, temperature: 37 C
[4] = genetic background: cdc53-1, temperature: 37 C
[5] = genetic background: das1 deletion, temperature: 30 C
[6] = genetic background: das1 deletion, temperature: 37 C
[7] = genetic background: doa10 deletion, temperature: 30 C
[8] = genetic background: wild type, temperature: 30 C
[9] = genetic background: wild type, temperature: 37 C
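Also: PSI is a weighted mean of sequencing reads over stability bins, variants kept only with over 10 reads, mCherry proximal and sfGFP distal, peptide attached via GGGS linker.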

Sequence | protein stability index (Saccharomyces cerevisiae [1]) | protein stability index (Saccharomyces cerevisiae [2]; [3]) | protein stability index (Saccharomyces cerevisiae [2]; [4]) | protein stability index (Saccharomyces cerevisiae [2]; [5]) | protein stability index (Saccharomyces cerevisiae [2]; [6]) | protein stability index (Saccharomyces cerevisiae [2]; [7]) | protein stability index (Saccharomyces cerevisiae [2]; [8]) | protein stability index (Saccharomyces cerevisiae [2]; [9])
GYRGRITRLVNG | 0.29 ± 0.035 | 0.661 ± 0.03 | 0.715 ± 0.015 | 0.639 ± 0.0079 | 0.7422 ± 0.00086 | 0.14 ± 0.024 | 0.168 ± 0.021 | 0.369 ± 0.00097
GYRYMWLWRLSA | 0.178 ± 0.095 | 0.544 ± 0.027 | 0.706 ± 0.026 | 0.665 ± 0.036 | 0.762 ± 0.028 | 0.148 ± 0.0028 | 0.143 ± 0.032 | 0.235 ± 0.013
HCLGWCFSRLSS | 0.289 ± 0.012 | 0.654 ± 0.043 | 0.7199 ± 0.00078 | 0.653 ± 0.021 | 0.766 ± 0.0092 | 0.186 ± 0.013 | 0.206 ± 0.027 | 0.4302 ± 0.0015
HIVYCSSEQIKC | 0.497 ± 0.0059 | 0.53 ± 0.048 | 0.6419 ± 0.0016 | 0.446 ± 0.026 | 0.589 ± 0.0063 | 0.482 ± 0.028 | 0.483 ± 0.029 | 0.56 ± 0.032
HLLMLAMVGFQC | 0.487 ± 0.017 | 0.5752 ± 0.0029 | 0.688 ± 0.0015 | 0.475 ± 0.038 | 0.619 ± 0.02 | 0.424 ± 0.0061 | 0.454 ± 0.022 | 0.583 ± 0.025
HVLGSIYWAIFV | 0.428 ± 0.011 | 0.497 ± 0.02 | 0.493 ± 0.028 | 0.407 ± 0.024 | 0.563 ± 0.023 | 0.289 ± 0.0029 | 0.314 ± 0.03 | 0.499 ± 0.011
IGFFFACFFSVF | 0.442 ± 0.065 | 0.419 ± 0.057 | 0.444 ± 0.012 | 0.403 ± 0.021 | 0.518 ± 0.0099 | 0.352 ± 0.0041 | 0.363 ± 0.022 | 0.43 ± 0.019
IGWKLNRIQKNI | 0.326 ± 0.021 | 0.6858 ± 0.0052 | 0.735 ± 0.043 | 0.649 ± 0.028 | 0.728 ± 0.047 | 0.15 ± 0.021 | 0.193 ± 0.029 | 0.436 ± 0.011
IGYLGSELRFVS | 0.514 ± 0.037 | 0.688 ± 0.094 | 0.741 ± 0.011 | 0.626 ± 0.0078 | 0.762 ± 0.018 | 0.384 ± 0.017 | 0.434 ± 0.04 | 0.69 ± 0.012
IISICLYFLVRC | 0.299 ± 0.045 | 0.223 ± 0.003 | 0.326 ± 0.073 | 0.229 ± 0.027 | 0.391 ± 0.0067 | 0.212 ± 0.0074 | 0.212 ± 0.015 | 0.327 ± 0.0058
IKKKKRKKIKAN | 0.244 ± 0.043 | 0.634 ± 0.048 | 0.728 ± 0.019 | 0.65 ± 0.024 | 0.751 ± 0.015 | 0.199 ± 0.013 | 0.211 ± 0.017 | 0.291 ± 0.021
IKWRCLFCVCVL | 0.422 ± 0.043 | 0.477 ± 0.011 | 0.466 ± 0.012 | 0.429 ± 0.026 | 0.489 ± 0.0054 | 0.371 ± 0.0045 | 0.375 ± 0.014 | 0.453 ± 0.008
ILFRRRLCCFLK | 0.4735 ± 0.0015 | 0.349 ± 0.03 | 0.434 ± 0.0052 | 0.443 ± 0.019 | 0.536 ± 0.012 | 0.506 ± 0.021 | 0.396 ± 0.018 | 0.484 ± 0.021
ILLHSFFSFYLL | 0.30744 ± 1.3e-05 | 0.484 ± 0.0054 | 0.503 ± 0.0068 | 0.508 ± 0.027 | 0.5933 ± 0.0054 | 0.289 ± 0.009 | 0.269 ± 0.023 | 0.419 ± 0.006
ILLYCVLIDPYS | 0.344 ± 0.032 | 0.203 ± 0.008 | 0.2634 ± 0.0013 | 0.221 ± 0.043 | 0.352 ± 0.0093 | 0.219 ± 0.011 | 0.229 ± 0.025 | 0.361 ± 0.057
ILVLKFLRLLSA | 0.448 ± 0.031 | 0.525 ± 0.015 | 0.555 ± 0.024 | 0.444 ± 0.034 | 0.563 ± 0.012 | 0.343 ± 0.017 | 0.365 ± 0.028 | 0.5261 ± 0.0015
ISPCLVRLWYRI | 0.175 ± 0.033 | 0.462 ± 0.053 | 0.574 ± 0.021 | 0.544 ± 0.018 | 0.673 ± 0.019 | 0.103 ± 0.028 | 0.102 ± 0.037 | 0.168 ± 0.026
IVCYFFAFSFMW | 0.362 ± 0.0046 | 0.288 ± 0.014 | 0.399 ± 0.058 | 0.293 ± 0.028 | 0.462 ± 0.0081 | 0.2859 ± 0.0019 | 0.288 ± 0.025 | 0.425 ± 0.024
IVEVNCILMWIF | 0.4398 ± 0.00029 | 0.423 ± 0.024 | 0.489 ± 0.026 | 0.365 ± 0.021 | 0.532 ± 0.029 | 0.345 ± 0.037 | 0.369 ± 0.041 | 0.469 ± 0.044
IVGVLAVLVRPV | 0.466 ± 0.023 | 0.484 ± 0.029 | 0.561 ± 0.019 | 0.369 ± 0.03 | 0.5371 ± 0.0051 | 0.34 ± 0.011 | 0.376 ± 0.023 | 0.51 ± 0.017
IVIFQTAYVVRI | 0.213 ± 0.0041 | 0.159 ± 0.0011 | 0.233 ± 0.013 | 0.164 ± 0.011 | 0.238 ± 0.012 | 0.225 ± 0.034 | 0.173 ± 0.0086 | 0.234 ± 0.01
IVVVVRLSPILG | 0.331 ± 0.034 | 0.293 ± 0.016 | 0.397 ± 0.099 | 0.27 ± 0.015 | 0.4272 ± 0.003 | 0.228 ± 0.013 | 0.274 ± 0.016 | 0.401 ± 0.011
IWIHSVGVECTS | 0.486 ± 0.019 | 0.487 ± 0.011 | 0.494 ± 0.033 | 0.359 ± 0.036 | 0.544 ± 0.0068 | 0.315 ± 0.0044 | 0.358 ± 0.032 | 0.5186 ± 0.005
IWYGLFWLRFWV | 0.51 ± 0.055 | 0.513 ± 0.044 | 0.572 ± 0.018 | 0.497 ± 0.018 | 0.586 ± 0.015 | 0.444 ± 0.018 | 0.423 ± 0.023 | 0.5368 ± 0.0047
IYNIIFKYRTIT | 0.127 ± 0.084 | 0.525 ± 0.036 | 0.581 ± 0.014 | 0.575 ± 0.0086 | 0.661 ± 0.073 | 0.0671 ± 0.0022 | 0.0987 ± 0.019 | 0.118 ± 0.016
KCWSGTVMVRLG | 0.34 ± 0.0068 | 0.675 ± 0.062 | 0.72 ± 0.017 | 0.596 ± 0.013 | 0.723 ± 0.032 | 0.164 ± 0.0099 | 0.191 ± 0.036 | 0.4516 ± 0.0042
KERHRNKRKQIA | 0.342 ± 0.038 | 0.659 ± 0.011 | 0.741 ± 0.021 | 0.66 ± 0.022 | 0.7046 ± 0.004 | 0.173 ± 0.0077 | 0.205 ± 0.035 | 0.43 ± 0.046
KERNKISQRKLT | 0.434 ± 0.024 | 0.65 ± 0.009 | 0.654 ± 0.034 | 0.666 ± 0.015 | 0.714 ± 0.028 | 0.143 ± 0.023 | 0.185 ± 0.018 | 0.416 ± 0.013
KFKRLTKFYARQ | 0.311 ± 0.0089 | 0.555 ± 0.031 | 0.684 ± 0.029 | 0.676 ± 0.032 | 0.618 ± 0.011 | 0.108 ± 0.0012 | 0.132 ± 0.027 | 0.334 ± 0.017
KHKIIGKYQRQI | 0.46 ± 0.021 | 0.704 ± 0.13 | 0.751 ± 0.02 | 0.629 ± 0.033 | 0.7236 ± 0.0012 | 0.319 ± 0.017 | 0.338 ± 0.017 | 0.576 ± 0.015
